The conditions of the data set: phosphorylation at S183.

With p27/Kip1: S183A, the other result is given as “no change”.

These data come from paper PMC3981467.
